Assay: yeast display, Sf9 membrane polyspecificity reagent, FACS + sequencing; frameworks hold sequencing errors
In short: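 Galactose induction of a Saccharomyces cerevisiae BJ5465 synthetic nanobody display library ran 36–48 hours. The cells were then stained for 1 hour at 4 °C with 10% biotinylated, detergent-solubilized Sf9 membrane reagent, pulled down on streptavidin microbeads and FACS-sorted into low and high (top ~1%) gates on expression and reagent-binding fluorescence. Labels for polyreactivity follow the gate of origin.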

| Sequence | polyreactivity (PSR sort gate) |
| --- | --- |
| QVQLVESGGGLVQAGGSLRLSCAASGRTFSVNDMGWYRQAPGKERELVAAISFSGGSTYYADSVKGRFTISRDNAKNSVYLQMNSLKPEDTEVYYCAAEAYASCFYVITGFGIYDYWGQGTQVTVSS | high polyreactivity |
| QVQLVESGGGLVQAGGSLRLSCAASGRTFSVNDMGWYRQAPGKERELVAAISFSGGSTYYADSVKGRFTISRDNAKNTVYLQMNSLKPEDTAVYYCASEAYPSWFYVITGFGIYDYWGQGTQVTVSS | high polyreactivity |
| QVQLVESGGGLVQAGGSLRLSCAASGRTFSVYAMGSSRHAPGKERELVAAITESGGSTYYADSVKGRFTISRDNAKITVYLQMNSLKPEDTAVYYCNAGPYYWYVYWGQGTQVTVSS | low polyreactivity |
| QVQLVESGGGLVQAGGSLRLSCAASGRTFSVYAMGWYRQAPGKERELVARIRSGGSTYYADSVKGRFTISRDNAKNTVYLQMNRLKPEDTAVYYCATQHYGPSSNARGVYRYYYWGHGTQVTVSS | high polyreactivity |
| QVQLVESGGGLVQAGGSLRLSCAASGRTFSVYTMGWYRQAPGKERELVASINWSGGRTYYADSVKGRFTISRDNAKNTVYLQMNSLKPEDTAVYYCAATGWRTLYDYWGQGTQVTVSS | high polyreactivity |
| QVQLVESGGGLVQAGGSLRLSCAASGRTFSWNAMGWYRQAPGKERELVAAINRSGGITFYADSVKGRFTISRDNAKNTVYLHMNSLKPEDTAVYYSAADRSFGHHYWYSGKRYDYWGQGTQVTVSS | low polyreactivity |
| QVQLVESGGGLVQAGGSLRLSCAASGRTFSWYVMGWYRQAPGKERELVAAISWNGGRTYYADSVKGRFTISRDNAKNTVYLQMNSLKPEDTAVYYCNRDYYWRDGAKYIDDYWGQGTQVTVSS | high polyreactivity |
| QVQLVESGGGLVQAGGSLRLSCAASGRTFSYAMGWYRQAPGKERELVAAITSGGSTYYADSVKGRFTISRDNAKNTVYLQMNSLKPEDTAVYYCAKLLGNYARYDYWGHGTQVTVSS | high polyreactivity |
| QVQLVESGGGLVQAGGSLRLSCAASGRTFSYNAMGWYRQAPGKERELVAAISWSDGSTYYADSVKGRFTISRDNAKNTVYLQMNSLKPEDTAVYYCAVESFYRHASLYDNWGQGTQVTVSS | high polyreactivity |
| QVQLVESGGGLVQAGGSLRLSCAASGRTFSYNARGWYRPAPGKEMELVASISSSGTSTSYADSVKGRFTISRDYAKNTVYLQMNSLKPEDTAVYYCATVRYPYWYSGPQNSRGYWGQGSQVTVSS | high polyreactivity |
| QVQLVESGGGLVQAGGSLRLSCAASGRTFSYYALGWYRQAPGKERELVATISYSTGNTNYADSVKGRFTISRDNAKNTVYLQMNSLKPEDTAVYYCAADFSPFVGETYWKYDYWGQGTQVTVSS | low polyreactivity |
| QVQLVESGGGLVQAGGSLRLSCAASGRTFSYYAMGWSRQAPGKERELVAAMSWNGGSTYYADSVKGRFTISRDNAKNTVYFQMNSLKPEDTAVYYGAAAFYYYGDYDYWGQGTQVTVSS | low polyreactivity |
| QVQLVESGGGLVQAGGSLRLSCAASGRTFSYYAMGWYRPAPGKERELVARITYRGGRTYYADSVKGRFTISRDNAKNTVYLQMNSLKPEDTAVYYCATTSWRYGYDYWGQGTQVTVSS | high polyreactivity |
| QVQLVESGGGLVQAGGSLRLSCAASGRTFSYYAMGWYRQAAGKERELVAAISRAGRTNYADSVKGRFTISRDNAKNTVYLQMNSLKPEDTAVYYCAATGWLRIDRPYTYTYCYWGQGTQVTVSS | high polyreactivity |
| QVQLVESGGGLVQAGGSLRLSCAASGRTFSYYAMGWYRQAPGKERELVAAIRRSSGTTYYADSVKGRFTISSDNAKNTVYLQMNSLKPEDTAVYYCNARSRRASIKRDYWGQGTQVTVSS | high polyreactivity |
| QVQLVESGGGLVQAGGSLRLSCAASGRTFSYYAMGWYRQAPGKERELVAAISSGGSTNYADSVKGRFTISRDNAKNTVYLQMNSLKPEDPAFYYCANSSIWGSGRVRWVTYYFWGQGTQVTVSS | low polyreactivity |
